Measured values: patent US20250327097A1, “ORGANISMS PRODUCING LESS CROTONIC ACID” (Global Bioenergies, priority 2021, published 2025)
Substitutions are numbered along the chain they refer to. Numbers in names are those of the source.

B1: I283T-P284D-i284aP-N287P-S322T-N388M-E421V-C430N-L432F-L434W-S436N-H461T-G462R-i462aA-A463T (protein)
chain: MFLKSLREQINLLKRQGDLRIINRPVDSYLEAAAIIRRSTETKAPVPLMTNIKGYPGCSIVGGLAALSSNPEYPLSRVAMSLGLSTTASAQSIVQYLIDGLKKTPYLPVEIDSNSAPCKQNILRGEDASLAHFPIPQVHQHDGNRYVNTWGVFIVESPDGQWCNWSIQRVQYLNDRQMIALVFPSQHISDIWEEWVKIGKPMPYALVQGCEPIVPYIAGLPLLERNVNEAEYIGALYGKGIEVVKCETHDLRVPASSEVVIEGYFAITREGVEGPFGEFAGYTDNEPSLQPILSITAISWQDDPIWPVVAEGKPVDEYHTCTGIGDAAAIQNVLLTANLPVSFVWVPLYSACHLMIVSINRHWRQTHPDLTSEQLTKKVGDVIHQTRMSIKLPKIVVLDDDVDPADTESLLWALATRIHPVRKRYFYESNIFPWLNCYSEEERHNRKGKRVIIDALLPENTRTISSFDYAYPDDIKQRVLMHWETDFSHD
B2: I283T-P284D-i284aP-N287P-S322T-N388M-E421V-C430N-L432F-L434W-S436N-C437F-G448E-H461T-dG462-A463T (protein)
chain: B1 chain with C437F, G448E, R462G
B3: I283T-P284D-i284aP-N287P-S322T-N388M-E421V-C430R-L432F-L434W-S436N-C437F-Y438L-H461T-G462R-i462aA-A463T (protein)
chain: B1 chain with N430R, C437F, Y438L
B4: I283T-P284D-i284aP-N287P-S322T-N388M-E421V-C430N-L432F-L434W-S436N-C437F-Y438L-H461T-G462R-i462aA-A463T (protein)
chain: B1 chain with C437F, Y438L
B5: V272R-I283T-P284D-i284aP-N287P-S322T-N388M-E421V-C430N-L432F-L434W-S436N-C437F-G448E-H461T-dG462-A463T (protein)
chain: B1 chain with V272R, C437F, G448E, R462G
B6: V272R-I283T-P284D-i284aP-N287P-S322T-N388M-E421V-C430N-L432F-L434W-S436N-C437F-H461T-G462R-i462aA-A463T (protein)
chain: B1 chain with V272R, C437F
B7: I283T-P284D-i284aP-N287P-S322T-N388M-E421V-C430N-L432F-L434W-S436N-C437F-G448E-H461T-G462R-i462aA-A463T (protein)
chain: B1 chain with C437F, G448E
B8: I283T-P284D-i284aP-N287P-S322T-N388M-E421V-C430N-L432F-L434W-S436N-G448E-H461T-G462R-i462aA-A463T (protein)
chain: B1 chain with G448E
B9: K43E-I283T-P284D-i284aP-N287P-S322T-N388M-E421V-C430P-L432F-L434W-S436N-C437F-H461T-G462R-i462aA-A463T (protein)
chain: B1 chain with K43E, N430P, C437F
B10: V272R-I283T-P284D-i284aP-N287P-S322T-N388M-E421V-C430N-L432F-L434W-S436N-C437F-G448E-H461T-G462R-i462aA-A463T (protein)
chain: B1 chain with V272R, C437F, G448E
B11: V272I-I283T-P284D-i284aP-N287P-S322T-N388M-E421V-C430N-L432F-L434W-S436N-C437F-H461T-G462R-i462aA-A463T (protein)
chain: B1 chain with V272I, C437F
B12: I283T-P284D-i284aP-N287P-S322T-N388M-I418V-E421V-C430N-L432F-L434W-S436N-C437F-H461T-G462R-i462aA-A463T (protein)
chain: B1 chain with I418V, C437F
B13: V272R-I283T-P284D-i284aP-N287P-S322T-N388M-E421V-C430N-L432F-L434W-S436N-G448E-H461T-G462R-i462aA-A463T (protein)
chain: B1 chain with V272R, G448E
B14: R15L-I283T-P284D-i284aP-N287P-S322T-K378M-N388M-E421V-C430N-L432F-L434W-S436N-H461T-dG462-A463T (protein)
chain: B1 chain with R15L, K378M, R462G
B15: I283T-P284D-i284aP-N287P-S322T-N388M-E421V-C430N-L432F-L434W-S436N-C437F-H461T-G462R-i462aA-A463T (protein)
chain: B1 chain with C437F
B16: V272L-I283T-P284D-i284aP-N287P-S322T-N388M-E421V-C430N-L432F-L434W-S436N-H461T-dG462-A463T (protein)
chain: B1 chain with V272L, R462G
B17: I283T-P284D-i284aP-N287P-S322T-N388M-E421V-C430N-L432F-L434W-S436Q-C437F-H461T-G462R-i462aA-A463T (protein)
chain: B1 chain with N436Q, C437F
B18: A33P-I283T-P284D-i284aP-N287P-S322T-N388M-E421V-C430N-L432F-L434W-S436N-C437F-H461T-G462R-i462aA-A463T (protein)
chain: B1 chain with A33P, C437F
B19: I283T-P284D-i284aP-N287P-S322T-H384S-N388M-E421V-C430N-L432F-L434W-S436N-C437F-H461T-G462R-i462aA-A463T (protein)
chain: B1 chain with H384S, C437F
B20: V272R-I283T-P284D-i284aP-N287P-S322T-N388M-E421V-C430N-L432F-L434W-S436N-G448E-H461T-dG462-A463T (protein)
chain: B1 chain with V272R, G448E, R462G
B21: V272R-I283T-P284D-i284aP-N287P-S322T-N388M-E421V-C430N-L432F-L434W-S436N-C437F-H461T-dG462-A463T (protein)
chain: B1 chain with V272R, C437F, R462G
B22: I283T-P284D-i284aP-N287P-S322T-N388M-E421V-C430R-L432F-L434W-S436N-C437F-H461T-G462R-i462aA-A463T (protein)
chain: B1 chain with N430R, C437F
B23: V272K-I283T-P284D-i284aP-N287P-S322T-N388M-E421V-C430N-L432F-L434W-S436N-C437F-H461T-G462R-i462aA-A463T (protein)
chain: B1 chain with V272K, C437F
B24: V272I-I283T-P284D-i284aP-N287P-S322T-N388M-E421V-C430R-L432F-L434W-S436N-C437F-Y438L-H461T-G462R-i462aA-A463T (protein)
chain: B1 chain with V272I, N430R, C437F, Y438L
B25: V272I-I283T-P284D-i284aP-N287P-S322T-N388M-E421V-C430R-L432F-L434W-S436N-C437F-H461T-G462R-i462aA-A463T (protein)
chain: B1 chain with V272I, N430R, C437F
B26: V272I-I283T-P284D-i284aP-N287P-S322T-N388M-E421V-C430N-L432F-L434W-S436N-H461T-dG462-A463T (protein)
chain: B1 chain with V272I, R462G
B27: I283T-P284D-i284aP-N287P-S322T-N388M-E421V-C430N-L432F-L434W-S436N-C437F-E441V-H461T-G462R-i462aA-A463T (protein)
chain: B1 chain with C437F, E441V
B28: V272R-I283T-P284D-i284aP-N287P-S322T-N388M-E421V-C430N-L432F-L434W-S436N-H461T-dG462-A463T (protein)
chain: B1 chain with V272R, R462G
B29: V272R-I283T-P284D-i284aP-N287P-S322T-N388M-E421V-C430N-L432F-L434W-S436N-H461T-G462R-i462aA-A463T (protein)
chain: B1 chain with V272R

system: 3-methylcrotonic acid; type: biochemical, Yersinia frederiksenii; set-up: key: “+” representing a low increase in activity; “++++” representing a high increase in activity

Molecule | Activity relative to WT
B1 | ++++
B2 | ++++
B3 | ++++
B4 | ++++
B5 | ++++
B6 | ++++
B7 | ++++
B8 | ++++
B9 | ++++
B10 | ++++
B11 | ++++
B12 | ++++
B13 | ++++
B14 | ++++
B15 | ++++
B16 | ++++
B17 | ++++
B18 | ++++
B19 | ++++
B20 | ++++
B21 | ++++
B22 | ++++
B23 | ++++
B24 | ++++
B25 | ++++
B26 | ++++
B27 | ++++
B28 | ++++
B29 | ++++
